Test results published in the supplement of paper PMC9732359.
± gives the uncertainty stated by the source.

Assay: protein stability index of a GFP-peptide fusion (yeast GPS) (PSI 1-4); higher = more stable; sorted into four equal gates, so the index is relative within each strain
Conditions: ubr1∆
How it was run: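 Tiled yeast protein peptides of 17 residues were each joined downstream of GFP, on plasmids that also express Cherry. The pooled library was maintained in yeast, and mid-log cultures in leucine-free medium were sorted into four equal gates on the GFP/Cherry ratio. Plasmids from every gate were amplified by PCR and sequenced on Illumina, with barcodes linking reads to strains. The protein stability index of a peptide is its gate-number-weighted read frequency summed over the gates.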

**Q.** With QINNVHLIPNEIKGASE [RPN4] as the sequence, how does the protein stability index read?
**A.** The protein stability index was 2.76 ± 0.052.

**Q.** With QINPTRETNDDIWRVAG [SNF2] as the sequence, how does the protein stability index read?
**A.** Its protein stability index is 2.14 ± 0.052.

**Q.** Which protein stability index does the source give for QKIMILQRTILNRIINH [RGR1] here?
**A.** The protein stability index was 1.7 ± 0.055.

**Q.** With QKKVLIDGPKAGVPRQA [RPL14A] as the sequence, how does the protein stability index read?
**A.** Its protein stability index is 3.35 ± 0.073.

**Q.** With QKRQLHDISKTETSNED [SNU114] as the sequence, how does the protein stability index read?
**A.** The protein stability index was 3.044 ± 0.03.

**Q.** With QKSFEQLNSRAVAVVVD [RPN11] as the sequence, how does the protein stability index read?
**A.** Its protein stability index is 1.48 ± 0.058.

**Q.** Which protein stability index does the source give for QKVLNAHRQRAMEARSS [SMC4] here?
**A.** Its protein stability index is 1.32 ± 0.073.

**Q.** With QLAGKSGEDTNVGLPIL [YOR098C/NUP1] as the sequence, how does the protein stability index read?
**A.** Its protein stability index is 3.25 ± 0.052.

**Q.** Which protein stability index does the source give for QLDEFKNKYLKDVLAQT [SWP82] here?
**A.** Its protein stability index is 2.36 ± 0.057.

**Q.** With QLDSYLVNGFSQSQQKL [MED2] as the sequence, how does the protein stability index read?
**A.** The protein stability index was 2.72 ± 0.046.

**Q.** With QLEDESSRLEFVKGISR [YML103C/NUP188] as the sequence, how does the protein stability index read?
**A.** The protein stability index was 3.21 ± 0.099.

**Q.** Which protein stability index does the source give for QLFNWCLMRSLHKLELK [DSN1] here?
**A.** Its protein stability index is 1.19 ± 0.058.

**Q.** Which protein stability index does the source give for QLFSTFDRLNGNDTISK [SSN2] here?
**A.** The protein stability index was 2.96 ± 0.048.

**Q.** With QLIFRQQTGLVDAITRC [SNU114] as the sequence, how does the protein stability index read?
**A.** Its protein stability index is 2.47 ± 0.041.

**Q.** For QLKYDTSVQEKELMLQS [YIL149C/MLP2], which protein stability index is on record?
**A.** Its protein stability index is 2.53 ± 0.12.

**Q.** For QLLDIAEFKKENLADLD [LIN1], which protein stability index is on record?
**A.** The protein stability index was 2.95 ± 0.096.

**Q.** For QLNEKLVGRLRKCETQK [YCS4], which protein stability index is on record?
**A.** Its protein stability index is 2 ± 0.061.

**Q.** Which protein stability index does the source give for QLVYKRGFGKINKQRVP [RPL7A] here?
**A.** The protein stability index was 2.85 ± 0.059.

**Q.** For QMDQQLQYTALTGSPNN [ARP7], which protein stability index is on record?
**A.** Its protein stability index is 3.13 ± 0.063.

**Q.** Which protein stability index does the source give for QMTQIMDIMEDFLRYIN [SNF2] here?
**A.** Its protein stability index is 1.43 ± 0.027.

**Q.** For QNAADLQQICRVRNKDI [RPL9A], which protein stability index is on record?
**A.** The protein stability index was 2.89 ± 0.06.

**Q.** With QNDELTMGMRALLKLSV [DIS3] as the sequence, how does the protein stability index read?
**A.** Its protein stability index is 2.7 ± 0.066.

**Q.** For QNFAEFMTKLLEVANDL [IRR1], which protein stability index is on record?
**A.** The protein stability index was 2.65 ± 0.14.

**Q.** With QNHNSKSTDNSAIRQVF [IRR1] as the sequence, how does the protein stability index read?
**A.** The protein stability index was 2.739 ± 0.027.

**Q.** Which protein stability index does the source give for QNIETRQLANLIPFIVK [NUT1] here?
**A.** Its protein stability index is 1.63 ± 0.039.

**Q.** With QNIMTLPDGKNGNLEEE [MED6] as the sequence, how does the protein stability index read?
**A.** The protein stability index was 3.31 ± 0.091.

**Q.** With QNKLFYITNADDSTKFQ [SIR3] as the sequence, how does the protein stability index read?
**A.** The protein stability index was 3.27 ± 0.067.

**Q.** With QNNEQNPIDPFNIIREF [YDL116W/NUP84] as the sequence, how does the protein stability index read?
**A.** Its protein stability index is 3.17 ± 0.041.

**Q.** Which protein stability index does the source give for QNRRLAFEELEGSWDRG [PRP8] here?
**A.** The protein stability index was 3.31 ± 0.16.

**Q.** For QNVAGDKTAVKLDTEVK [SWP82], which protein stability index is on record?
**A.** The protein stability index was 3.32 ± 0.089.

**Q.** With QPAQPRESRIVSTEGNV [RPL21A] as the sequence, how does the protein stability index read?
**A.** Its protein stability index is 2.87 ± 0.086.

**Q.** For QPMISPDNSIFGDTKSE [SWI3], which protein stability index is on record?
**A.** Its protein stability index is 3.1 ± 0.061.

**Q.** With QPNARALERYDEAEGRF [SMC1] as the sequence, how does the protein stability index read?
**A.** The protein stability index was 3.29 ± 0.097.

**Q.** Which protein stability index does the source give for QPQQQLGDMENNLEKYP [RTT102] here?
**A.** Its protein stability index is 3.33 ± 0.1.

**Q.** Which protein stability index does the source give for QPTPRSASNTAKSTPNT [GAL11] here?
**A.** Its protein stability index is 2.55 ± 0.048.

**Q.** With QQKQQQQQQQHQQQQQQ [SNF5] as the sequence, how does the protein stability index read?
**A.** Its protein stability index is 2.769 ± 0.026.

**Q.** With QQLRRALPDVVVKGLPD [RPO31] as the sequence, how does the protein stability index read?
**A.** The protein stability index was 2.36 ± 0.083.

**Q.** Which protein stability index does the source give for QQPNPLQDLISVYGLDD [ROX3] here?
**A.** The protein stability index was 1.97 ± 0.084.

**Q.** For QQQQAAALANANNNINS [SWI1], which protein stability index is on record?
**A.** Its protein stability index is 2.65 ± 0.06.

**Q.** For QQQQQQQQQQQQQGQIP [SNF5], which protein stability index is on record?
**A.** The protein stability index was 2.826 ± 0.02.

**Q.** With QQQTNALNGIDINTVNT [GRR1] as the sequence, how does the protein stability index read?
**A.** Its protein stability index is 3.19 ± 0.05.

**Q.** For QQRFQALQQQQQQQQNQ [SWI1], which protein stability index is on record?
**A.** The protein stability index was 2.04 ± 0.059.

**Q.** Which protein stability index does the source give for QQRIREIGLLPEDALVN [SMC3] here?
**A.** Its protein stability index is 3.25 ± 0.13.

**Q.** Which protein stability index does the source give for QQTGLVDAITRCYQPFE [SNU114] here?
**A.** Its protein stability index is 2.98 ± 0.05.

**Q.** With QRDLGLYVVGLFDTYHA [RRP6] as the sequence, how does the protein stability index read?
**A.** Its protein stability index is 2.57 ± 0.033.

**Q.** Which protein stability index does the source give for QRDLYKRKEELVSTLTT [SMC2] here?
**A.** Its protein stability index is 1.82 ± 0.053.

**Q.** For QRFVGHKSDVMSVDIDK [ASC1], which protein stability index is on record?
**A.** Its protein stability index is 2.96 ± 0.071.

**Q.** For QRIAKNDPEYMDTSDDA [DLS1], which protein stability index is on record?
**A.** Its protein stability index is 3.01 ± 0.079.

**Q.** Which protein stability index does the source give for QRILEVLGTPDQKIWPY [SSN3] here?
**A.** Its protein stability index is 1.6 ± 0.068.

**Q.** With QRTATLCLEKLMCLSSK [YCS4] as the sequence, how does the protein stability index read?
**A.** The protein stability index was 1.78 ± 0.057.

**Q.** With QRTLSKSFYSTATGAAS [CYT1] as the sequence, how does the protein stability index read?
**A.** Its protein stability index is 2.39 ± 0.048.

**Q.** Which protein stability index does the source give for QRVFKPVDITMMENYQN [PRP8] here?
**A.** The protein stability index was 2.41 ± 0.048.

**Q.** With QSEHLEAVVDQDVQRTC [FAS1] as the sequence, how does the protein stability index read?
**A.** The protein stability index was 3.38 ± 0.095.
